# Assay results reported in US20260139061A1 (Novartis, published 2026).
# B1: CAR4 - Soluble scFv (scFv)
# scFv: DVVMTQSPLSLPVTLGQPASISCKSSQSLLDSDGKTYLNWLQQRPGQSPRRLISLVSKLDSGVPDRFSGSGSGTDFTLKISRVEAEDVGVYYCWQGTHFPGTFGGGTKVEIKGGGGSGGGGSGGGGSGGGGSEIQLVQSGAEVKKPGESLRISCKGSGFNIEDYYIHWVRQMPGKGLEWMGRIDPENDETKYGPIFQGHVTISADTSINTVYLQWSSLKASDTAMYYCAFRGGVYWGQGTTVTVSSGSHHHHHHHH
# notes: Soluble His-tagged humanized scFv; also called humanized EGFRvIII scFv variant, VK2-VH5, 4G4S
# B2: CAR8 - Soluble scFv (scFv)
# scFv: DVVMTQSPLSLPVTLGQPASISCKSSQSLLDSDGKTYLNWLQQRPGQSPRRLISLVSKLDSGVPDRFSGSGSGTDFTLKISRVEAEDVGVYYCWQGTHFPGTFGGGTKVEIKGGGGSGGGGSGGGGSGGGGSEIQLVQSGAEVKKPGATVKISCKGSGFNIEDYYIHWVQQAPGKGLEWMGRIDPENDETKYGPIFQGRVTITADTSTNTVYMELSSLRSEDTAVYYCAFRGGVYWGQGTTVTVSSGSHHHHHHHH
# notes: Soluble His-tagged humanized scFv; also called humanized EGFRvIII scFv variant, VK2-VH1, 4G4S
# B3: CAR 3 - Soluble scFv (scFv)
# scFv: EIQLVQSGAEVKKPGESLRISCKGSGFNIEDYYIHWVRQMPGKGLEWMGRIDPENDETKYGPIFQGHVTISADTSINTVYLQWSSLKASDTAMYYCAFRGGVYWGQGTTVTVSSGGGGSGGGGSGGGGSGGGGSDVVMTQSPLSLPVTLGQPASISCKSSQSLLDSDGKTYLNWLQQRPGQSPRRLISLVSKLDSGVPDRFSGSGSGTDFTLKISRVEAEDVGVYYCWQGTHFPGTFGGGTKVEIKGSHHHHHHHH
# notes: Soluble His-tagged humanized scFv; also called humanized EGFRvIII scFv variant, VH5-VK2, 4G4S
# B4: CAR5 - Soluble scFv (scFv)
# scFv: EIQLVQSGAEVKKPGATVKISCKGSGFNIEDYYIHWVQQAPGKGLEWMGRIDPENDETKYGPIFQGRVTITADTSTNTVYMELSSLRSEDTAVYYCAFRGGVYWGQGTTVTVSSGGGGSGGGGSGGGGSGGGGSDVVMTQSPLSLPVTLGQPASISCKSSQSLLDSDGKTYLNWLQQRPGQSPRRLISLVSKLDSGVPDRFSGSGSGTDFTLKISRVEAEDVGVYYCWQGTHFPGTFGGGTKVEIKGSHHHHHHHH
# notes: Soluble His-tagged humanized scFv; also called humanized EGFRvIII scFv variant, VH1-VK2, 4G4S
# B5: CAR2 - Soluble scFv (scFv)
# scFv: DVVMTQSPDSLAVSLGERATINCKSSQSLLDSDGKTYLNWLQQKPGQPPKRLISLVSKLDSGVPDRFSGSGSGTDFTLTISSLQAEDVAVYYCWQGTHFPGTFGGGTKVEIKGGGGSGGGGSGGGGSGGGGSEIQLVQSGAEVKKPGATVKISCKGSGFNIEDYYIHWVQQAPGKGLEWMGRIDPENDETKYGPIFQGRVTITADTSTNTVYMELSSLRSEDTAVYYCAFRGGVYWGQGTTVTVSSGSHHHHHHHH
# notes: Soluble His-tagged humanized scFv; also called humanized EGFRvIII scFv variant, VK4-VH1, 4G4S
# B6: CAR1 Soluble scFv (scFv)
# scFv: EIQLVQSGAEVKKPGATVKISCKGSGFNIEDYYIHWVQQAPGKGLEWMGRIDPENDETKYGPIFQGRVTITADTSTNTVYMELSSLRSEDTAVYYCAFRGGVYWGQGTTVTVSSGGGGSGGGGSGGGGSGGGGSDVVMTQSPDSLAVSLGERATINCKSSQSLLDSDGKTYLNWLQQKPGQPPKRLISLVSKLDSGVPDRFSGSGSGTDFTLTISSLQAEDVAVYYCWQGTHFPGTFGGGTKVEIKGSHHHHHHHH
# notes: Soluble His-tagged humanized scFv; also called humanized EGFRvIII scFv variant, VH1-VK4, 4G4S
# B7: CAR10 (Anti-EGFRvIII clone 139), full CAR on cells (other)
# chain: DIQMTQSPSSLSASVGDRVTITCRASQGIRNNLAWYQQKPGKAPKRLIYAASNLQSGVPSRFTGSGSGTEFTLIVSSLQPEDFATYYCLQHHSYPLTSGGGTKVEIKRTGSTSGSGKPGSGEGSEVQVLESGGGLVQPGGSLRLSCAASGFTFSSYAMSWVRQAPGKGLEWVSAISGSGGSTNYADSVKGRFTISRDNSKNTLYLQMNSLRAEDTAVYYCAGSSGWSEYWGQGTLVTVSSTTTPAPRPPTPAPTIASQPLSLRPEACRPAAGGAVHTRGLDFACDIYIWAPLAGTCGVLLLSLVITLYCKRGRKKLLYIFKQPFMRPVQTTQEEDGCSCRFPEEEEGGCELRVKFSRSADAPAYKQGQNQLYNELNLGRREEYDVLDKRRGRDPEMGGKPRRKNPQEGLYNELQKDKMAEAYSEIGMKGERRRGKGHDGLYQGLSTATKDTYDALHMQALPPR
# notes: Chimeric antigen receptor (139 scFv, CD8 hinge and TM, 4-1BB, CD3 zeta) on Jurkat, JNL or primary human T cells; also called human CAR10
# Target: T1, human EGFRvIII (epidermal growth factor receptor variant III), expressed on cells (human, UniProt P00533 25-1210)
# T1 construct: whole, on cells; also called hEGFRvIII; hEGFRvII
# Assay: flow cytometry (FACS), purified His-tagged scFv on HEK293F cells transiently transfected with hEGFRvIII
# Description: HEK293F suspension cells were transiently transfected with either wild type hEGFR or hEGFRvII and were harvested 2 days after transfection. Approximately 5e5 cells/per well were transferred to a BD Falcon 96 well plate. The cells were spun down at 900 rpm (Sorval Legend XT centrifuge) for 3 minutes. The supernatant was removed. Anti-EGFRvII scFv protein samples were diluted in DPBS with 5% FBS. The samples were added into the wells, mixed and incubated for 1 hour. The cells were washed twice in the DPBS with 5% FBS. The cells were incubated with anti-poly His PE (R&D) for 1 hour, washed twice before FACS analysis (LSRII from BD Biosciences).
row,Binder,binding result
1,B1,binds
2,B2,binds
3,B3,binds
4,B4,binds
5,B5,binds
6,B6,binds

# Target: T2, EGFRvIII-Fc fusion protein (UniProt P00533 25-645)
# T2 construct: Soluble reagent used at different concentrations to stain CAR-transfected Jurkat cells; not shown: Fc part; detected with PE anti-human IgG Fc
# Assay: flow cytometry, Jurkat E6 cells electroporated with the CAR vector, stained with different concentrations of Fc fusion protein and PE anti-human IgG Fc
# Description: Jurkat E6 cells were electroporated with either CAR9 vector or CAR10 vector using Amaxa Cell Line Nucleofector Kit V (Lonza, Colgne AG, Germany) and program X-001. One day after the transfection, 0.5×10⁶ cells were placed into each well of a V-shape 96 well plate (Greiner Bio-One, Germany) in 0.2 ml FACS buffer (DPBS buffer containing 5% FBS) and incubated for 10 minutes at room temperature. Cells were then spun down and resuspended in 0.2 ml of the FACS buffer with different concentrations of EGFRvIII-Fc or EGFRwt-Fc and incubated at 4° C. for 30 minutes. Cells were then washed with FACS buffer three times, and incubated with 0.2 ml of the FACS buffer with 2 μl of PE anti-human IgG Fc (Jackson ImmunoResearch Laboratories, West Grove, PA) for 30 minutes at 4° C. in the dark. After washing with 0.2 ml of FACS buffer three times, cells were analyzed on a LSRII (BD Biosciences, San Jose, CA) machine using the FACSDiva software (BD Biosciences, San Jose, CA). Immunofluorescence staining was analyzed as the relative log fluorescence of live cells, and the percentage of the PE positive cells were measured.
row,Binder,fold lower binding compared to CAR9 [fold]
1,B7,~40
